Results: article PMC8764033, “Single-molecule analysis of specificity and multivalency in binding of short linear substrate motifs to the APC/C” (Nature Communications, 2022)

Experiments:
[1] = biological target: Cdc20-activated yeast APC/C with the mutant Apc10 subunit Apc10-4A (S. cerevisiae | S. cerevisiae (endogenous in yeast)) (UniProt P26309); experiment: single-molecule off-rate (SMOR) assay, TIRF microscopy; target held on PEG/PEG-biotin glass by NeutrAvidin and biotinylated anti-Strep-Tag II antibody (tag on the activator); dye-labeled ligand (peptide no greater than 1 nM) in buffer C + BSA (20 mM HEPES pH 7.5, 150 mM KCl, 10% glycerol, 0.05% Tween-20, 1 mM DTT) with oxygen scavengers; mean dwell time from an exponential distribution; dwell times below 100 ms noted as single-frame (SF)
[2] = biological target: Cdh1-activated yeast APC/C with the mutant Apc10 subunit Apc10-4A (S. cerevisiae | S. cerevisiae (endogenous in yeast)) (UniProt P53197); experiment: as above
[3] = biological target: Cdh1-activated yeast APC/C (S. cerevisiae | S. cerevisiae (endogenous in yeast)) (UniProt P53197); experiment: fluorescence polarisation + other: single-molecule off-rate (SMOR) assay; inferred constants: kon from the KD of anisotropy and the koff of SMOR; KD for APC/C^Cdh1 from the dwell time with the kon of Cdh1 alone assumed
[4] = biological target: Cdc20-activated yeast APC/C (S. cerevisiae | S. cerevisiae (endogenous in yeast)) (UniProt P26309); experiment: single-molecule off-rate (SMOR) assay, TIRF microscopy; target held on PEG/PEG-biotin glass by NeutrAvidin and biotinylated anti-Strep-Tag II antibody (tag on the activator); dye-labeled ligand (peptide no greater than 1 nM) in buffer C + BSA (20 mM HEPES pH 7.5, 150 mM KCl, 10% glycerol, 0.05% Tween-20, 1 mM DTT) with oxygen scavengers; mean dwell time from an exponential distribution; dwell times below 100 ms noted as single-frame (SF)
[5] = biological target: Cdh1-activated yeast APC/C (S. cerevisiae | S. cerevisiae (endogenous in yeast)) (UniProt P53197); experiment: as above

Hsl1 fragment (amino acids 667–872) with C-terminal HaloTag, wild-type degrons, sequence (P34244 667-872): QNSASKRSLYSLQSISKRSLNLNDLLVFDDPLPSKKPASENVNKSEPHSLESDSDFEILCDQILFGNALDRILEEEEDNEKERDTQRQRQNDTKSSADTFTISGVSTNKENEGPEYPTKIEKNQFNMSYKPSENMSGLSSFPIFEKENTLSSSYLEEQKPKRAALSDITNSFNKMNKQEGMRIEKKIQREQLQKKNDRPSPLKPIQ
Cdc20-activated yeast APC/C with the mutant Apc10 subunit Apc10-4A (S. cerevisiae | S. cerevisiae (endogenous in yeast)), sequence (P26309 whole entry, looked up, change not shown, tested part not stated): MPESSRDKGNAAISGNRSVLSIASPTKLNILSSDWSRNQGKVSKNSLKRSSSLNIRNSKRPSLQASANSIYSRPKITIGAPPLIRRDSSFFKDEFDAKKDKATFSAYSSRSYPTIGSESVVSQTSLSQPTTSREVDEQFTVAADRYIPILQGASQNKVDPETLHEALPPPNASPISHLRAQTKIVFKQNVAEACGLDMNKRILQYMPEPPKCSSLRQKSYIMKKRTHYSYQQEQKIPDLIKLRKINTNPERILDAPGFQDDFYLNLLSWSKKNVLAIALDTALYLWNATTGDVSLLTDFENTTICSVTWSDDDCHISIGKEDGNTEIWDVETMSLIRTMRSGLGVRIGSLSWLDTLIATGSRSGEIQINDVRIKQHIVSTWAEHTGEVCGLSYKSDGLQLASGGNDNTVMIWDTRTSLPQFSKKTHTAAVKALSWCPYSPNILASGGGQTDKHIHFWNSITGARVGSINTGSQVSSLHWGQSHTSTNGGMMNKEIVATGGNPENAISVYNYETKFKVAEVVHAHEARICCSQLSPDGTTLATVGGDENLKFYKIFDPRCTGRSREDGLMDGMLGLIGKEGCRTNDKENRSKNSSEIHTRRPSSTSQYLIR
Cdh1-activated yeast APC/C with the mutant Apc10 subunit Apc10-4A (S. cerevisiae | S. cerevisiae (endogenous in yeast)), sequence (P53197 whole entry, looked up, change not shown, tested part not stated): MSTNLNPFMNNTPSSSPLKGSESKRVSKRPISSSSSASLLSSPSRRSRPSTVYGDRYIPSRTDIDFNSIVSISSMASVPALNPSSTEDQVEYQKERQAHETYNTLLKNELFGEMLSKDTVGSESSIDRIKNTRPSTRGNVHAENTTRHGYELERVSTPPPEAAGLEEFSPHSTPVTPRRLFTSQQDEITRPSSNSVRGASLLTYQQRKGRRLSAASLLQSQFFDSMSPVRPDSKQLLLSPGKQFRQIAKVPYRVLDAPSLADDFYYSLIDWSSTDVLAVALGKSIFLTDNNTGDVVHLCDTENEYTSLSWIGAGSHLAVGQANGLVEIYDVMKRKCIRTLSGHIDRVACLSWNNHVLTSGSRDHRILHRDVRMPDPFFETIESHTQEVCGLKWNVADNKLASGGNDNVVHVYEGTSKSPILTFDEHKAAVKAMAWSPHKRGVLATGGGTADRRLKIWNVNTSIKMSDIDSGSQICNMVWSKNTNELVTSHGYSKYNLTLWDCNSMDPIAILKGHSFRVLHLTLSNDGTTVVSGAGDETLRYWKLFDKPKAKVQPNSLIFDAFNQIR

| mean dwell time [1] | mean dwell time [2] | Kd [3] | mean dwell time [4] | mean dwell time [5] | Substance |
| --- | --- | --- | --- | --- | --- |
| 0.152 s | 0.375 s | – | – | – | Cy5-labeled Hsl1 D box peptide |
| 0.449 s | 75.9 s | 4 nM | 0.518 s | 321 s | Hsl1 fragment (amino acids 667–872) with C-terminal HaloTag, wild-type degrons (from UniProt P34244 667-872) (domain or fragment) |
